Test results: PMC10646045

What was measured:
Test in all cases: nanopore single-molecule
[1] = tested on: HCoV-229E nucleocapsid protein (HCoV-229E); settings: 20 nM protein, 200 pM probe; SPR: DPBS running buffer, temperature not stated; nanopore: 2 M LiCl, 5 mM MgCl2, 10 mM Tris-HCl, 1 mM EDTA, pH 8, 300 mV, about 2 h incubation
[2] = tested on: HCoV-OC43 nucleocapsid protein (HCoV-OC43); settings: 20 nM protein, 200 pM probe; SPR: DPBS running buffer, temperature not stated; nanopore: 2 M LiCl, 5 mM MgCl2, 10 mM Tris-HCl, 1 mM EDTA, pH 8, 300 mV, about 2 h incubation
[3] = biological target: SARS-CoV-2 nucleocapsid protein (SARS-CoV-2) (UniProt P0DTC9)
[4] = tested on: HCoV-NL63 spike protein (HCoV-NL63); settings: 200 nM protein, 200 pM probe; SPR: DPBS running buffer, temperature not stated; nanopore: 2 M LiCl, 5 mM MgCl2, 10 mM Tris-HCl, 1 mM EDTA, pH 8, 300 mV, about 2 h incubation
[5] = tested on: HCoV-OC43 spike protein (HCoV-OC43); settings: 200 nM protein, 200 pM probe; SPR: DPBS running buffer, temperature not stated; nanopore: 2 M LiCl, 5 mM MgCl2, 10 mM Tris-HCl, 1 mM EDTA, pH 8, 300 mV, about 2 h incubation
[6] = biological target: SARS-CoV-2 spike protein S1 region (SARS-CoV-2) (UniProt P0DTC2)
[7] = tested on: spike protein from lysed SARS-CoV-2 pseudovirus (SARS-CoV-2)

Substance | binding signal (% bound events) [1] | binding signal (% bound events) [2] | binding signal (% bound events) [3] | binding signal (% bound events) [4] | binding signal (% bound events) [5] | binding signal (% bound events) [6] | binding signal (% bound events) [7]
NBA centre-labelled 10 kbp molecular probe | 0.31 | 0.83 | 5.71 |  |  |  | 
SBA end-labelled 10 kbp molecular probe |  |  |  | 0.02 | 0.5 | 9.82 | 0.6
